# According to patent US6022720A, “Bax protein channel formation” (Glaxo Wellcome Inc., priority 1997, dated 2000):
# B1: stathmin: unrelated control protein (protein, UniProt P16949 2-149, looked up)
# Stathmin: ASSDIQVKELEKRASGQAFELILSPRSKESVPEFPLSPPKKKDLSLEEIQKKLEAAEERRKSHEAEVLKQLAEKREHEKEVLQKAIEENNNFSKMAEEKLTHKMEANKENREAQMAAKLERLREKDKHIEEVRKNKESKDPADETEAD
# Assays:
# sympathetic neurons = experiment: Lytic effects of added protein on sympathetic neurons; type: cell-based; settings: coaddition of control protein with 10 μM Bax
# Protocol: The effect of soluble recombinant Bax and Bcl-2 on the integrity of sympathetic neurons and sheep erythrocytes was tested. Ten μM Bax protein was added to serum-free medium of sympathetic neurons. […] (see FIG. 7B).
# Bax = biological target: T1, Bax (Homo sapiens, UniProt Q07812); experiment: Inhibition of Bax-induced release of carboxyfluorescein from liposomes; type: biochemical; settings: control protein preincubated with liposomes before Bax 70 nm
# T1 construct: GST (pGEX2T, thrombin site) (N, cleaved yes); made in house; host or cells: E. coli PR745
# Protocol: To determine whether Bax was a pore-forming protein, a study was undertaken to determine whether Bax could trigger the release of liposome-encapsulated carboxyfluorescein. […] The liposomes were dialyzed for 24 hours against PBS and diluted to 8 ml. For analysis at acidic pH, fluorescence of released dye was measured after adjustment of pH to 7.5 by addition of 1 M Tris-HCl pH 7.5.
# In each test 20 μl of liposomes containing 20 mM carboxyfluorescein was diluted in 1 ml of PBS (pH 7.5) and 5 μl of purified protein was added at the time indicated by the arrow. Incubation was performed at room temperature. Final Bax concentrations are indicated for each curve (see FIG. 8A). Bcl-2 was tested at 70 nM. Each curve of FIG. 8A was normalized by subtraction of the initial fluorescence value obtained at time 0.
# Liposomes (20 μl in 1 ml PBS) were first incubated (15 min at room temperature) with Bcl-2 or with a control protein (stathmin) before addition of Bax (70 nm) to the liposome solution.
# After addition of the compound, 80 nM Bax was added to the liposome suspension and the fluorescence measured with a spectrofluorimeter.
# T1 sequence (Q07812 with tags, fused parts or gaps limits assumed): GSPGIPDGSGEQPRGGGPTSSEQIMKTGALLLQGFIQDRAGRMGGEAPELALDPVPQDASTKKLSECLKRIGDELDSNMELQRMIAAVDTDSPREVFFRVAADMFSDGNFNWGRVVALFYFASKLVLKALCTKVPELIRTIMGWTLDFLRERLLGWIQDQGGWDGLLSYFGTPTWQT
Molecule,effect on Bax-induced neuronal lysis upon coaddition (sympathetic neurons),effect on Bax function (carboxyfluorescein efflux) (Bax)
ERK2: control protein [reference compound],no effect,–
B1,no effect,no adverse effect
